Laboratory results reported in US10813984B2, “Aspartate-β-hydroxylase induces epitope-specific T cell responses in tumors” (Rhode Island Hospital, priority 2014, dated 2020).

Columns and labels:
PBMCs = assay: IFN-γ ELISpot after 2 weeks PBMC culture with single ASPH peptide; assay type: cell-based, human; settings: 5 healthy blood donors HD #1-5
Method: (§1) Epitope-specific T cells were induced according to known methods.^21 Briefly, 2.5×10^5 PBMCs/200 μl X-VIVO 15 medium supplemented with 1 mM L-glutamine, 100 U/ml penicillin, 100 μg/ml streptomycin, and 50 U/ml recombinant human IL-2 (R&D Systems) in round-bottom 96-well plates were cultured for 2 weeks with 10 μg/ml individual peptide. When mature DCs were used as antigen-presenting cells, the T cells were isolated from PBMCs by negative selection using the Pan T Cell Isolation Kit II (Miltenyi Biotec). Regulatory T(reg) cells were removed by the addition of anti-CD25 microbeads (Miltenyi Biotec) where indicated. Treg cell-depleted or non-depleted T lymphocytes (2.4×10^6) were co-cultured for 8 days with 4×10^4 mature DCs loaded with relevant antigen in 24-well plates.^11
Human IFN-γ enzyme-linked immunospot (ELISpot) assays were performed as we described previously using a kit purchased from eBioscience (San Diego, Calif.) to determine T cell immune-reactivity.^21 Cells (5×10^4/well) were added to ELISpot plates (Millipore, Bedford, Mass.) pre-coated with anti-IFN-γ capture antibody and incubated with peptides (10 μg/ml) for 20 hours. […] The plates were developed by adding substrate, 3-amino-9-ethyl carbazole, and the number of spots/well was quantified using a CTL-immunospot S5 UV Analyzer (Cellular Technology Limited, Shaker Heights, Ohio).

[1] = tested on: established orthotropic HCC; settings: mice bearing established orthotropic HCC; cited from earlier work
Treg cells = settings: low doses; cited from earlier work
[2] = tested on: tumor-bearing mouse model; settings: cited from earlier work
PBMCs (CD4+ T cells) = assay: Flow cytometric analysis of peptide-cultured PBMCs (IFN-γ+CD4+, CD154); assay type: cell-based, human; settings: PBMCs of HD #1
Method: FIG. 3A is a histogram, FIGS. 3B and C are bar graphs, and FIG. 3D is a line graph. Characterization of ASPH peptide-specific T cell responses. PBMCs obtained from patient HD #1 were cultured with the ASPH peptides indicated. After 2 weeks incubation, the cells were collected and re-cultured with the corresponding peptides for 20 hours, followed by analyses. p52-reactive PBMCs were stained and the percentage of IFN-γ^+CD4^+ T cells was determined by flow cytometric analysis (FIG. 3A). The percentage of CD154-expressing CD4^+ T cells assessed by flow cytometric analysis was determined as a measure of the response of cells to the ASPH peptide listed in accordance with Table I (FIG. 3B). […] PBMCs cultured 2 weeks with the peptides listed were not treated or pretreated with anti-HLA-A,B,C or anti-HLA-DR for 1 hour; the same corresponding peptide (10 μg/ml) was then added and IFN-γ in the culture supernates collected after 5 days was quantified by ELISA (FIG. 3C). […] PBMCs, cultured 2 weeks with the ASPH peptides listed, were collected and reincubated with increasing concentrations of the same peptide. IFN-γ in the culture supernates collected after 5 days was quantified by standard ELISA. […]

[3] = tested on: pan T cells purified from PBMCs (CD4+ T cells, CD8+ CTLs); assay: T cell activation by co-culture with antigen-loaded monocyte-derived DCs, flow cytometric analysis; assay type: cell-based, human
Method: DCs were generated using known methods.^11,20 Monocytes were isolated from PBMCs using anti-CD14 microbeads (Miltenyi Biotec, Auburn, Calif.) and cultured for 5 days in X-VIVO 15 medium (Lonza, Walkerville, Md.) supplemented with human GM-CSF (R&D Systems, Minneapolis, Minn.) and IL-4 (R&D Systems). ASPH (1 μg/ml) was added on day 5. On the next day, TNF-α (R&D Systems) was added to stimulate DC maturation and the cells were incubated for another 48 hours. DCs incubated with α-fetoprotein (AFP; Zynaxis Cell Science, Malvern, Pa.) or alone served as the control. Mature, epitope-expressing DCs were collected at the end of the incubation period and used in the experiments described.
as §1
Flow cytometric analysis was conducted.^11 Intracellular cytokine staining was performed to evaluate T cell activation. Conjugated mouse monoclonal antibodies specific for the following determinants were used: CD4 (clone OKT4; BioLegend, San Diego, Calif.), CD8a (clone RPA-T8; BioLegend), CD137 (clone 4B4-1; BD Biosciences, San Diego, Calif.), CD154 (clone TRAP1; BD Biosciences), and IFN-γ (clone B27; BD Biosciences). Appropriate isotype controls were included in each analysis.
Experiments were undertaken to determine the capacity of ASPH to activate CD8^+ CTLs, as well as helper CD4^+ T cells, contained in the PBMC populations derived from HCC patients. The experimental procedure for evaluating ASPH-specific T cell activation was optimized using PBMCs derived from a healthy donor.^11 Pan T cells were co-cultured with autologous, ASPH-pulsed DCs; T cells co-incubated with AFP-pulsed or non-pulsed DCs served as controls. After 8 days culture, the T cells were collected and re-incubated with freshly prepared DCs pre-loaded with the same antigen; antigen-specific T cell activation was evaluated by flow cytometric analysis. […] Moreover, they support the premise that immunization with ASPH activates protein-specific CD4^+ and CD8^+ T cells in HCC patients.

[4] = HCC patients #1-5, ASPH-pulsed vs AFP-pulsed or non-pulsed DCs

Question: With “QKAKVKKKKPKLLNKF (p322) [ASPH AA 322-337, HLA-DRB1-restricted]” as the molecule, how does the “healthy blood donors for whom the peptide was immunogenic” value (PBMCs) read?
Answer: The value was 5 donors.

Question: For CNC(=O)c1cc(Oc2ccc(NC(=O)Nc3ccc(Cl)c(C(F)(F)F)c3)cc2)ccn1 [sorafenib], which “Treg cell function and anti-tumor immunity” value [1] is on record?
Answer: Its value is “reduced Treg cell function and enhanced anti-tumor immunity”.

Question: For O=P1(N(CCCl)CCCl)NCCCO1 (centres unmarked) [cyclophosphamide], which “number and inhibitory activity of Treg cells” value (Treg cells) is on record?
Answer: The value was “decrease the number and inhibitory activity of Treg cells”.

Question: And the “Treg cell function, immune response and tumor eradication” value [2]?
Answer: The value was “suppressed Treg cell function and augmented the immune response and tumor eradication”.

Question: With “TSFFTWFMVIALLGVWTSVA (p52) [ASPH AA 52-71, HLA-DRB1-restricted]” as the molecule, how does the “peptide-reactive IFN-γ-producing cells that expressed CD4” value (PBMCs (CD4+ T cells)) read?
Answer: The value was “essentially all”.

B1: ASPH: Full-length human ASPH recombinant protein produced in a Baculovirus system, loaded on monocyte-derived DCs (protein, listed as Homo sapiens)
chain: MAQRKNAKSSGNSSSSGSGSGSTSAGSSSPGARRETKHGGHKNGRKGGLSGTSFFTWFMVIALLGVWTSVAVVWFDLVDYEEVLGKLGIYDADGDGDFDVDDAKVLLGLKERSTSEPAVPPEEAEPHTEPEEQVPVEAEPQNIEDEAKEQIQSLLHEMVHAEHVEGEDLQQEDGPTGEPQQEDDEFLMATDVDDRFETLEPEVSHEETEHSYHVEETVSQDCNQDMEEMMSEQENPDSSEPVVEDERLHHDTDDVTYQVYEEQAVYEPLENEGIEITEVTAPPEDNPVEDSQVIVEEVSIFPVEEQQEVPPETNRKTDDPEQKAKVKKKKPKLLNKFDKTIKAELDAAEKLRKRGKIEEAVNAFKELVRKYPQSPRARYGKAQCEDDLAEKRRSNEVLRGAIETYQEVASLPDVPADLLKLSLKRRSDRQQFLGHMRGSLLTLQRLVQLFPNDTSLKNDLGVGYLLIGDNDNAKKVYEEVLSVTPNDGFAKVHYGFILKAQNKIAESIPYLKEGIESGDPGTDDGRFYFHLGDAMQRVGNKEAYKWYELGHKRGHFASVWQRSLYNVNGLKAQPWWTPKETGYTELVKSLERNWKLIRDEGLAVMDKAKGLFLPEDENLREKGDWSQFTLWQQGRRNENACKGAPKTCTLLEKFPETTGCRRGQIKYSIMHPGTHVWPHTGPTNCRLRMHLGLVIPKEGCKIRCANETRTWEEGKVLIFDDSFEHEVWQDASSFRLIFIVDVWHPELTPQQRRSLPAI
Question: What does the source list for B1?
Answer: CD4+ T cells expressing both IFN-γ and CD154 ([3]; HCC patients #1-5): expanded significantly; CD4+CD154+ and CD4+IFN-γ+ T cells [3, 4]: significant increases; percentage of CD8+ CTLs expressing CD137 and IFN-γ [3, 4]: significantly higher; percentages of responsive cells vs AFP sample or antigen control ([3]; HCC patients, FIGS. 1B and 1D, p<0.05): significantly greater; ASPH-specific T cell activation after Treg cell depletion ([3]; anti-CD25 microbeads prior to co-culture): enhanced; activation of both CD4+ T cells and CTLs ([3]; healthy donor HD #1, ASPH-pulsed DCs compared to AFP or no antigen): significant increases
